Laboratory results: patent US20250243279A1 (published 2025)
Blank lines part the entries; values can stand above or below the binder they belong to.

What was measured:
MICB = target: T1, MICB (human, UniProt Q29980 23-383); assay: Carterra LSA SPR
T1 chain: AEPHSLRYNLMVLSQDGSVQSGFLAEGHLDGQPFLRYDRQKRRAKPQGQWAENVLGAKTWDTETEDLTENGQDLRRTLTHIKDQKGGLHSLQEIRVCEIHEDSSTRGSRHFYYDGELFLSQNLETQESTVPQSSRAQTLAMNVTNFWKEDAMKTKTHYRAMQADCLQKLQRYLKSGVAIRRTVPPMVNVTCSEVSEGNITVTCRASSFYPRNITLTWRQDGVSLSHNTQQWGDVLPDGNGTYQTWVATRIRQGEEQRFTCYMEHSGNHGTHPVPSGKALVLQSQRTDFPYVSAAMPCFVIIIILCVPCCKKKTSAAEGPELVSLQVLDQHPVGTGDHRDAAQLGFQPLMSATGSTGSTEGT

MICA = target: T2, MICA (human, UniProt Q29983 24-383); assay: Carterra LSA SPR
T2 chain: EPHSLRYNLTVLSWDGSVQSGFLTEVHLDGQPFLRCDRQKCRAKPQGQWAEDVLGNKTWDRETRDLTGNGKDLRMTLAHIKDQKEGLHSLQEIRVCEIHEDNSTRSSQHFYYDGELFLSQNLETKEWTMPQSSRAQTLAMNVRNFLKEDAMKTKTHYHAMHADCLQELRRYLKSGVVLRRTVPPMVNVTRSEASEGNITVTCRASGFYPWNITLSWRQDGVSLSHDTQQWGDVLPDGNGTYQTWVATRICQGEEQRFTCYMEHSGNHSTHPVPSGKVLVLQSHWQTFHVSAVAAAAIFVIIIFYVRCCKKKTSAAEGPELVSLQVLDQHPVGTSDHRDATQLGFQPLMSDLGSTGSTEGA

CD16 = CD16 (UniProt P08637 17-208)
1H7 = assay: Carterra LSA SPR
1D9 = assay: Carterra LSA SPR
1C8 = assay: Carterra LSA SPR
1A2 = assay: Carterra LSA SPR
1B6 = assay: Carterra LSA SPR
1D8 = assay: Carterra LSA SPR
1B11-2 = assay: Carterra LSA SPR
1D7 = assay: Carterra LSA SPR
1E1 = assay: Carterra LSA SPR
cynoMICA = assay: Carterra LSA SPR

Sequence of CD16 (P08637 17-208): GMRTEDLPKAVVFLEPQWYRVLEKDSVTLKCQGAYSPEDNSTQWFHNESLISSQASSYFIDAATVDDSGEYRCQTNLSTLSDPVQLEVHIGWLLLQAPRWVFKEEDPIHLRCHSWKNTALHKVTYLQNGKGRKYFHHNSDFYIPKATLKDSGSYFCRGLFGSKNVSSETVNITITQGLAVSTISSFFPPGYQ

Kd (MICB): 2.59 nM
Kd (MICA): 17.8 nM
B2: D99136_2C11 [MICA/B]_H0_D99136_2C11 [MICA/B]_L0 (antibody, V domains shown)
VH: DVQLQESGPGLVKPSQSLSLTCSVTGYSITSGYNWDWIRHSPGNKLEWMGYISYDGSTNYNPSLKNRISITRDTSKNQFFLKLNSVTTEDTATYYCASSYYRYFDYWGQGTTLTVSS
VL: DVQMTQTTSSLSASLGDRVTISCSASQGISNYLNWFQQKPDGTVKLLIYYTSSLHSGVPSRFSGSGSGTDYSLTISNLEPEDIATYYCQQYTKLPWTFGGGTELEIK

Kd (CD16): 102 nM
B3: XENP41023 (antibody)
heavy: EVQLLESGGGLVQPGGSLRLSCAVSGFSLSSYGVIWVRQAPGKGLEYVSWVSSGGSTNYASSVKGRFTISRDTSKNTVYLQMNSLRAEDTAVYFCARGATNSGTDIWGPGTLVTVSSASTKGPSVFPLAPSSKSTSGGTAALGCLVKDYFPEPVTVSWNSGALTSGVHTFPAVLQSSGLYSLSSVVTVPSSSLGTQTYICNVNHKPSDTKVDKKVEPKSCDKTHTCPPCPAPELLGGPDVFLFPPKPKDTLMISRTPEVTCVVVDVSHEDPEVKFNWYVDGVEVHNAKTKPREEEYNSTYRVVSVLTVLHQDWLNGKEYKCKVSNKALPAPIEKTISKAKGQPREPQVYTLPPSREEMTKNQVSLTCDVSGFYPSDIAVEWESDGQPENNYKTTPPVLDSDGSFFLYSKLTVDKSRWEQGDVFSCSVMHEALHNHYTQKSLSLSPGK
scFv-Fc: EVQLLESGGGLVQPGGSLRLSCAVSGFSLSSYGVIWVRQAPGKGLEYVSWVSSGGSTNYASSVKGRFTISRDTSKNTVYLQMNSLRAEDTAVYFCARGATNSGTDIWGPGTLVTVSSGKPGSGKPGSGKPGSGKPGSDIVMTQSPSSLSASVGDRVTITCRASQSINSWLSWYQQKPGKPPKLLIYGASNLASGVPSRFKGSGSGTDFTLTISSLQPEDFATYYCQNNYGIIAAGATFGGGTKVEIKEPKSSDKTHTCPPCPAPELLGGPDVFLFPPKPKDTLMISRTPEVTCVVVDVSHEDPEVKFNWYVDGVEVHNAKTKPREEQYNSTYRVVSVLTVLHQDWLNGKEYKCKVSNKALPAPIEKTISKAKGQPREPQVYTLPPSREQMTKNQVKLTCLVKGFYPSDIAVEWESNGQPENNYKTTPPVLDSDGSFFLYSKLTVDKSRWQQGNVFSCSVMHEALHNHYTQKSLSLSPGK
light: DIVMTQSPSSLSASVGDRVTITCRASQSINSWLSWYQQKPGKPPKLLIYGASNLASGVPSRFKGSGSGTDFTLTISSLQPEDFATYYCQNNYGIIAAGATFGGGTKVEIKRTVAAPSVFIFPPSDEQLKSGTASVVCLLNNFYPREAKVQWKVDNALQSGNSQESVTEQDSKDSTYSLSSTLTLSKADYEKHKVYACEVTHQGLSSPVTKSFNRGEC

Kd (CD16): 120 nM
B4: XENP41024 (antibody)
heavy: EVQLLESGGGLVQPGGSLRLSCAVSGFSLSSYGVIWVRQAPGKGLEYVSWVSSGGSTNYASSVKGRFTISRDTSKNTVYLQMNSLRAEDTAVYFCARGATNSGTDIWGPGTLVTVSSASTKGPSVFPLAPSSKSTSGGTAALGCLVKDYFPEPVTVSWNSGALTSGVHTFPAVLQSSGLYSLSSVVTVPSSSLGTQTYICNVNHKPSDTKVDKKVEPKSCDKTHTCPPCPAPELLGGPSVFLFPPKPKDTLMISRTPEVTCVVVDVSHEDPEVKFNWYVDGVEVHNAKTKPREEEYNSTYRVVSVLTVLHQDWLNGKEYKCKVSNKALPAPEEKTISKAKGQPREPQVYTLPPSREEMTKNQVSLTCDVSGFYPSDIAVEWESDGQPENNYKTTPPVLDSDGSFFLYSKLTVDKSRWEQGDVFSCSVMHEALHNHYTQKSLSLSPGK
scFv-Fc: EVQLLESGGGLVQPGGSLRLSCAVSGFSLSSYGVIWVRQAPGKGLEYVSWVSSGGSTNYASSVKGRFTISRDTSKNTVYLQMNSLRAEDTAVYFCARGATNSGTDIWGPGTLVTVSSGKPGSGKPGSGKPGSGKPGSDIVMTQSPSSLSASVGDRVTITCRASQSINSWLSWYQQKPGKPPKLLIYGASNLASGVPSRFKGSGSGTDFTLTISSLQPEDFATYYCQNNYGIIAAGATFGGGTKVEIKEPKSSDKTHTCPPCPAPELLGGPSVFLFPPKPKDTLMISRTPEVTCVVVDVSHEDPEVKFNWYVDGVEVHNAKTKPREEQYNSTYRVVSVLTVLHQDWLNGKEYKCKVSNKALPAPEEKTISKAKGQPREPQVYTLPPSREQMTKNQVKLTCLVKGFYPSDIAVEWESNGQPENNYKTTPPVLDSDGSFFLYSKLTVDKSRWQQGNVFSCSVMHEALHNHYTQKSLSLSPGK
light: DIVMTQSPSSLSASVGDRVTITCRASQSINSWLSWYQQKPGKPPKLLIYGASNLASGVPSRFKGSGSGTDFTLTISSLQPEDFATYYCQNNYGIIAAGATFGGGTKVEIKRTVAAPSVFIFPPSDEQLKSGTASVVCLLNNFYPREAKVQWKVDNALQSGNSQESVTEQDSKDSTYSLSSTLTLSKADYEKHKVYACEVTHQGLSSPVTKSFNRGEC

Kd (1H7): 254 nM
Kd (1D9): 0.453 nM
Kd (1C8): 7.72 nM
Kd (1A2): 0.181 nM
Kd (1B6): 1.05 nM
Kd (1D8): 4.5 nM
Kd (1B11-2): 1.11 nM
Kd (1D7): 1.47 nM
Kd (1E1): 2.23 nM
B7: huMICB (ligand)
chain: AEPHSLRYNLMVLSQDGSVQSGFLAEGHLDGQPFLRYDRQKRRAKPQGQWAENVLGAKTWDTETEDLTENGQDLRRTLTHIKDQKGGLHSLQEIRVCEIHEDSSTRGSRHFYYDGELFLSQNLETQESTVPQSSRAQTLAMNVTNFWKEDAMKTKTHYRAMQADCLQKLQRYLKSGVAIRRTVPPMVNVTCSEVSEGNITVTCRASSFYPRNITLTWRQDGVSLSHNTQQWGDVLPDGNGTYQTWVATRIRQGEEQRFTCYMEHSGNHGTHPVPSGKALVLQSQRTDFPYVSAAMPCFVIIIILCVPCCKKKTSAAEGPELVSLQVLDQHPVGTGDHRDAAQLGFQPLMSATGSTGSTEGT

Kd (MICB): 2.27 nM
Kd (MICA): 22.9 nM
B8: D103388_1C7 [MICA/B]_H0_D103388_1C7 [MICA/B]_L0 (antibody, V domains shown)
VH: QVQLRQSGPGLGQPSQSLSITCTVFGFSLTNYGVHWVRQSPGKGLEWLGMIWNDGFTDFNAAFISRLSISKDNSKSQVFFKMNSLQPSDTAIYYCASPYFHYAMDYWGQGTSVTVSS
VL: QIVLTQSPAIMSASLGERVTMTCTASSSVSSSYLHWYQQKPGSSPKLWIYSTSNLASGVPARFSGSGSGTSYSLTISSMEAEDAATYYCHQYHRSPFTFGSGTKLEIK

Kd (MICB): 52.8 nM
Kd (MICA): 40.3 nM
B10: D94837_1E11_1 [MICA/B]_H0_D94837_1E11_1 [MICA/B]_L0 (antibody, V domains shown)
VH: EIQLQQSGPELVKPGASVKVSCKASGYAFTSYNMYWVKQSHGKSLEWIGYIDPYNGGTIYNQKFKGKATLTVDKSSSTAYMLLNSLTSEDSAVYYCARVGDAYPFAYWGQGTLVTVSA
VL: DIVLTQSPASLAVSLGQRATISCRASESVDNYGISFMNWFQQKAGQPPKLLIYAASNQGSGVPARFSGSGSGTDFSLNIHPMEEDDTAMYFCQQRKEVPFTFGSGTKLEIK

The next lines start with the binder.

B1: 2E5 (antibody, V domains shown)
VH: EVKLVESGGGLVQPGGSLKLSCATSGFTFSDYYMFWVRQTPEKRLEWVAYISEGGGSTYYPDTIKGRFTISRDNAKNTLYLQMSRLRSEDTAMYYCVRQRGAYNRYDDGRGFAYWGQGTLVTVSA
VL: DVLMTQTPLSLPVSLGDQASISCRSSQSIVHSNGNTYLEWYLQKPGQSPKLLIYKVSNRFSGVPDRLSGSGSGTDFTLKISRGEAEDLGVYYCFQGSHVPWTFGGGTKLEIK
Kd (MICB): 0.807 nM
Kd (MICA): 0.599 nM

B5: 2F7 (antibody, V domains shown)
VH: QVHLKQSGAELVRPGASVKLSCKASGYTFTDYYIDWMNQRPGQGLEWIARIYPGSGNSYYNEKFKGKATLTAEKSASTAHMQLSSLTSEDSAVYFCAREGPTGVAPHWYFDVWGTGTTVTVSS
VL: DIVMSQSPSSLSSYLGDRVTISCRASQDIGNYLNWYQQKPDGTVKLLIYSTSRLHSGVPSRFSGSGSGTDYSLTISNLEQEDVATYFCQQGNTLPWTFGGGTKLEIK
Kd (MICB): 9.77 nM
Kd (MICA): 42.4 nM

B6: 2E12 (antibody, V domains shown)
VH: QVQLQQSGAELVRPGTSVKVSCKASGYAFTNYLIEWVKQRPGQGLEWIGGINPGSGSTNYNEKFKGKATLTADKSSSTAYMQLSTLTFDDSAVYFCARLGGNYVDYWGQGTTLTVSS
VL: DIQMTQSPASLSASVGETVTITCRASGNIHNYLAWYQQKQGKSPQLLVYNAKTLADGVPSRFSGSGSGTQYSLKINSLQPEDFGSYYCQHFWSTPRTFGGGTKLEIK
Kd (MICB): 4.68 nM
Kd (MICA): 16.7 nM

B9: 1C7 (antibody, V domains shown)
VH: QVQLRQSGPGLGQPSQSLSITCTVFGFSLTNYGVHWVRQSPGKGLEWLGMIWNDGFTDFNAAFISRLSISKDNSKSQVFFKMNSLQPSDTAIYYCASPYFHYAMDYWGQGTSVTVSS
VL: QIVLTQSPAIMSASLGERVTMTCTASSSVSSSYLHWYQQKPGSSPKLWIYSTSNLASGVPARFSGSGSGTSYSLTISSMEAEDAATYYCHQYHRSPFTFGSGTKLEIK
Kd (cynoMICA): 23.8 nM

B11: 1E11-1 (antibody, V domains shown)
VH: EIQLQQSGPELVKPGASVKVSCKASGYAFTSYNMYWVKQSHGKSLEWIGYIDPYNGGTIYNQKFKGKATLTVDKSSSTAYMLLNSLTSEDSAVYYCARVGDAYPFAYWGQGTLVTVSA
VL: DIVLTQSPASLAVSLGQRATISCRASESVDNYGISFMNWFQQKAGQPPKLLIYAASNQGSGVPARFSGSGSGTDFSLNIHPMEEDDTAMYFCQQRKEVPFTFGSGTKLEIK
Kd (cynoMICA): 19.6 nM
